# Earlier results as cited in PMC6324986.
# Target: Bub1 (Homo sapiens) (UniProt O43683)
# Sequence of UniProt O43683 (O43683 whole entry): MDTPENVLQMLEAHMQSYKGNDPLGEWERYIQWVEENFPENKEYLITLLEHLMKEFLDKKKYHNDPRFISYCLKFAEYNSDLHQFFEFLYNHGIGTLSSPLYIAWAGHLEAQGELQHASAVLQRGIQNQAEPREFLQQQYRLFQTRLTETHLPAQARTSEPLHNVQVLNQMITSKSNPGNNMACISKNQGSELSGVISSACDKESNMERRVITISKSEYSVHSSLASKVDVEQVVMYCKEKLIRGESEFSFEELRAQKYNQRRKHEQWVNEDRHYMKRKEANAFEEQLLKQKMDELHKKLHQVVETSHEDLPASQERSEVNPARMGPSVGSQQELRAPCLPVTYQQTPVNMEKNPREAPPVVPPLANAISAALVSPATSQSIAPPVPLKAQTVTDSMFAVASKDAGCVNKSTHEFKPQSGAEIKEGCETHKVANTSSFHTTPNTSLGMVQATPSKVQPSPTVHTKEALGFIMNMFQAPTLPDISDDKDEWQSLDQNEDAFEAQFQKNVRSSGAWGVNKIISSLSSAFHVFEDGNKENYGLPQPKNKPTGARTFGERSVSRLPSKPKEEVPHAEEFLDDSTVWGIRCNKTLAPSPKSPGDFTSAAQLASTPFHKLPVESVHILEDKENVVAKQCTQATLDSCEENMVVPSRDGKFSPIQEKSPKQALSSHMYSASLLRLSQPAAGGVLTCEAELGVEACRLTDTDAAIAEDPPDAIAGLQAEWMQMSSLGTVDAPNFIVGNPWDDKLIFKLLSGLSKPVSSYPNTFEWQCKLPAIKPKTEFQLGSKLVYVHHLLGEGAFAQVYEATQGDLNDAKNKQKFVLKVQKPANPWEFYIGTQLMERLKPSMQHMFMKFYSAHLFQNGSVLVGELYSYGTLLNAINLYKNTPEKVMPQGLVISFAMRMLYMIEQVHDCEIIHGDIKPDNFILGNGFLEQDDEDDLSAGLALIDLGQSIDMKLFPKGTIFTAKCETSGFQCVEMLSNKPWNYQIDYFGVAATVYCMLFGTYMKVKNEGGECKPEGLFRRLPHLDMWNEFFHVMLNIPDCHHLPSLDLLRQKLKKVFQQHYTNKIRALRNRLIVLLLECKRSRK
substance,measurement,value
Mad1 (from UniProt Q9Y6D9),Kd,> 3 µM
